Assay results: patent publication US20120264231A1, “ASSAY FOR ORAI CALCIUM CHANNEL REGULATORS” (IMMUNE DISEASE INSTITUTE, INC., priority 2009, published 2012)

Target: ORAI1 (Homo sapiens, UniProt Q96D31)
Experiment: Fura-2 Ca^2+ flux assay, sec6-4 secretory vesicles with ORAI1
Type: biochemical
Design: the ORAI functional fragment is ORAI1 (65-301), ORAI1 (65-87), or full length ORAI1; made in house; host or cells: S. cerevisiae NY17 (sec6-4), isolated secretory vesicles, vector pBEVY-GU
Protocol: It was next asked whether STIM-ORAI protein-protein interaction is sufficient to open the ORAI Ca^2+ channel. Vesicles obtained from S cerevisiae expressing ORAI were incubated under conditions where Fura-2 was the principal Ca^2+ buffer in the extravesicular solution in order to monitor Ca^2+ efflux (Meyer, T., et al., Biochemistry 29, 32-37 (1990)).
Vesicles carrying ORAI 1 were isolated from S cerevisiae strain NY1 7 according to a standard protocol (Coury, L. A., et al., Methods Enzymol 306, 169-186 (1999); Nakamoto, R. K., et al., J Biol Chem 266, 7940-7949 (1991)). Efflux of Ca^2+ elicited by STIM1^CT fragments was detected by suspending the vesicles in a buffer containing Fura-2 as principal Ca^2+ buffer, and monitoring the Fura-2 fluorescence excitation spectrum (Meyer, T., et al., Biochemistry 29, 32-37 (1990)). As a complementary approach, ORAI 1 was coexpressed with a Ca^2+ sensor cameleon D3 cpV or cameleon D4 cpV53 that was targeted to the vesicles, and changes in intravesicular [Ca^2+] were detected as changes in FRET between CFP and YFP of the sensor.
S cerevisiae strain NY17 featuring the temperature-sensitive sec6-4 mutation was used for protein expression and purification of secretory vesicles as described (Nakamoto, R. K., et al., J Biol Chem 266, 7940-7949 (1991); Coury, L. A., et al., Methods Enzymol 306, 169-186 (1999)). Cells were grown to midlog phase at 25° C. in uracil-deficient synthetic complete medium containing glucose, which was subsequently exchanged for galactose to induce transgene expression over a period of 8 hours. The temperature was then switched to 37° C. for 3 hours to force intracellular accumulation of secretory vesicles. Cells were collected by centrifugation at 4,000×g for 5 min at 4° C., washed once in ice-cold water, resuspended at a concentration of 50-60 OD600 units/mL in 10 mM DTT, 100 mM Tris pH 9.4, and shaken gently at room temperature for 10 min. Cells were pelleted and resuspended at 50-60 OD600 units/mL in spheroplast buffer (1.4 M sorbitol, 50 mM K2HPO4 pH 7.5, 10 mM NaN3, 40 mM β-mercaptoethanol) containing Zymolyase 20T (50 units per g of yeast wet weight) and incubated for up to 1 h at 37° C. Spheroplasts were harvested at 3,000×g for 5 min at 4° C., resuspended in spheroplast buffer containing 10 mM MgCl2 and 1 mg/ml Concanavalin A at a density corresponding to 50 OD600 units/mL of the starting culture, and gently shaken at 4° C. for 15 min. […] Myc-tagged ORAI1 was detected in Western blots using the murine anti-Myc monoclonal antibody 9E10. […]

[1] = STIM 1 cytoplasmic fragments 2 μM

Chain of ORAI1 (Q96D31 2-301): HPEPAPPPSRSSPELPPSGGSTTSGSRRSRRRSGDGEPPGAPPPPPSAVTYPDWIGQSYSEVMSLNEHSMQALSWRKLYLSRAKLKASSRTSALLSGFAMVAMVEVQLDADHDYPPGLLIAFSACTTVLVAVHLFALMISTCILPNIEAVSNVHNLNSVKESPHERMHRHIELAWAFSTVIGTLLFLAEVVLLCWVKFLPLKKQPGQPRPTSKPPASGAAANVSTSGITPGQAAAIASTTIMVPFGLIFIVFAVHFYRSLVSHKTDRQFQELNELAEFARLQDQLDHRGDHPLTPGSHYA

| Ca^2+ efflux from vesicles with ORAI (Fura-2 excitation spectrum) [1] | Compound | Ca^2+ efflux from vesicles with ORAI (Fura-2 excitation spectrum) (ionomycin 20 μM) |
| --- | --- | --- |
| had little effect | STIM1 (233-463): truncated mouse STIM1 cytoplasmic fragment, residues 233-463, His-tagged recombinant protein |  |
| elicited efflux of Ca^2+ | STIM1 (233-498): truncated mouse STIM1 cytoplasmic fragment, residues 233-498, His-tagged recombinant protein |  |
|  | C[C@H](CCC(=O)O)C[C@H](C)C[C@H](C)C(=O)/C=C(\O)[C@H](C)C[C@H](C)C/C=C/[C@@H](C)[C@@H](O)[C@@H](C)[C@@H](O)C[C@@H]1CC[C@@](C)([C@H]2CC[C@@](C)([C@@H](C)O)O2)O1 [ionomycin, reference compound] | release of Ca^2+ to the extravesicular solution |

| Compound | Ca^2+ efflux from vesicles with ORAI (Fura-2 excitation spectrum) [1] | Ca^2+ efflux from vesicles with ORAI (Fura-2 excitation spectrum) (ionomycin 20 μM) |
| --- | --- | --- |
| STIM1^CT: cytoplasmic region of STIM1, mouse residues 233-685, His-tagged recombinant protein expressed in E coli | elicited efflux of Ca^2+ |  |
